Laboratory results as given in patent US20250320294A1.
Read-outs that look alike come from different tables or passages of the source.

Key:
[1] = target: human-CD45RO-ECD-His (human) (UniProt P08575); assay: ELISA, human-CD45RO-ECD-His-coated plates
[2] = target: human-CD45RO-ECD-His (human) (UniProt P08575); assay: ELISA, human-CD45RO-ECD-His-coated plates; remark: listed apart in the source
[3] = target: human-CD45RO-ECD-His (human) (UniProt P08575); assay: SPR, captured human-CD45RO-ECD-His, 1:1 binding

EC50 [1]: 328 pM
EC50 [2]: 544 pM
Kd [3]: 433000 pM
koff [3]: 0.00373 s⁻¹
kon [3]: 8610 M⁻¹ s⁻¹
Substance: CD45RO Monoclonal Antibody (UCHL1) (eBioscience™)
